In patent US20260001953A1:

Target: Sialic acid-binding immunoglobulin-like lectin 8 (SIGLEC-8), antigen of the Carterra SPR studies (UniProt Q9NYZ4)
Assay: SPR cross-reactivity table

Chain of Sialic acid-binding immunoglobulin-like lectin 8 (SIGLEC-8), antigen of the Carterra SPR studies (Q9NYZ4 17-363 limits assumed): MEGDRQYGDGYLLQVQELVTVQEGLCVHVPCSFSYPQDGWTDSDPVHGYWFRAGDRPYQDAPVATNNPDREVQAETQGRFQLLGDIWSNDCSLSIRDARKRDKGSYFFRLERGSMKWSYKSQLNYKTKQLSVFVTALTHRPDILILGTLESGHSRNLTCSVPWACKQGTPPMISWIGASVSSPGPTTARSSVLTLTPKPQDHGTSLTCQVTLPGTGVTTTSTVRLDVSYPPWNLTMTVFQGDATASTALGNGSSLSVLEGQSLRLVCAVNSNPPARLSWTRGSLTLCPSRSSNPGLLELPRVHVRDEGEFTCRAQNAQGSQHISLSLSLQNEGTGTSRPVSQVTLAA

- Kd: 0.031 nM
Substance: Control (antibody)
